Substitutions are numbered along the chain they refer to.
B1: Fab551-3 (Fab, V domains shown)
VH: EVQLVQSGAEVKKPGESLKISCKGSGYSFTSYWIGWVRQMPGKGLEWMGIIYPGDSDTRYSPSFQGQVTISADKSISTAYLQWSSLKASDTAMYYCARGLFWFFDYWGQGTLVTVSS
VL: EIVLTQSPATLSLSPGERATLSCRASQSVDSWLAWYQQKPGQAPRLLIYDASNRATGIPARFSGSGSGTDFTLTISSLEPEDFAVYYCQQFDTWPITFGQGTKVEIK
notes: Human Fab from a pIX phage library, made in E. coli; kappa light chain
B2: Fab169-47 (Fab, V domains shown)
VH: QVQLVQSGAEVKKPGSSVKVSCKASGGTFSSYAISWVRQAPGQGLEWMGGIIPIFGTANYAQKFQGRVTITADESTSTAYMELSSLRSEDTAVYYCARTSPSFDYWGQGTLVTVSS
VL: B1 VL with D30R, S31D, W32F, D50Y, F91G, D92F, T93H, I96F
notes: Human Fab from a pIX phage library, made in E. coli; kappa light chain; also called VH169-47/VL169-47
B3: Fab169-45 (Fab, V domains shown)
VH: B2 VH with T99R, S100L, P101G, S102L
VL: B1 VL with W32A, F91Y, T93R, I96L
notes: Human Fab from a pIX phage library, made in E. coli; kappa light chain; also called VH169-45/VL169-45
B4: Fab 169-76 (Fab, V domains shown)
VH: B2 VH with A33G, I54Y, T99P, S100T, P101N, S102V, F103L
VL: B1 VL with D30R, S31K, W32F, F91S, D92N, T93N, I96F
notes: Human Fab from a pIX phage library, made in E. coli; kappa light chain (detected with anti-kappa-HRP); also called VH169-76/VL169-76
B5: Fab169-34 (Fab, V domains shown)
VH: QVQLVQSGAEVKKPGSSVKVSCKASGGTFSSYAISWVRQAPGQGLEWMGGIIPIFGTANYAQKFQGRVTITADESTSTAYMELSSLRSEDTAVYYCAREGPASWDNWALDYWGQGTLVTVSS
VL: B1 VL with D30S, S31D, D50Y, F91S, D92S, W94A
notes: Human Fab from a pIX phage library, made in E. coli; kappa light chain; also called VH169-34/VL169-34
B6: Fab169-64 (Fab, V domains shown)
VH: QVQLVQSGAEVKKPGSSVKVSCKASGGTFSSYAISWVRQAPGQGLEWMGGIIPIFGTANYAQKFQGRVTITADESTSTAYMELSSLRSEDTAVYYCARNIVGDYLLDYWGQGTLVTVSS
VL: B1 VL with S31D, F91G, W94A
notes: Human Fab from a pIX phage library, made in E. coli; kappa light chain; also called VH169-64/VL169-64
B7: Fab169-G11 (Fab, V domains shown)
VH: QVQLVQSGAEVKKPGSSVKVSCKASGGTFSSYAISWVRQAPGQGLEWMGGIIPIFGTANYAQKFQGRVTITADESTSTAYMELSSLRSEDTAVYYCARDGYDIVLGIFDYWGQGTLVTVSS
VL: B1 VL with D30S, W32Y, F91R, D92S, T93N, I96L
notes: Human Fab from a pIX phage library, made in E. coli; kappa light chain (germline L6 scaffold); also called VH169-G11/VLL6
B8: Fab169-C2 (Fab, V domains shown)
VH: QVQLVQSGAEVKKPGSSVKVSCKASGGTFSSYAISWVRQAPGQGLEWMGGIIPIFGTANYAQKFQGRVTITADESTSTAYMELSSLRSEDTAVYYCARHWRLNYWGQGTLVTVSS
VL: B1 VL with D30S, W32Y, F91R, D92S, T93N, I96L
notes: Human Fab from a pIX phage library, made in E. coli; kappa light chain (germline L6 scaffold); also called VH169-C2/VLL6
B9: Fab169-31 (Fab, V domains shown)
VH: QVQLVQSGAEVKKPGSSVKVSCKASGGTFSSYAISWVRQAPGQGLEWMGGIIPIFGTANYAQKFQGRVTITADESTSTAYMELSSLRSEDTAVYYCARHLYYMLDYWGQGTLVTVSS
VL: B1 VL with D30A, S31D, F91Y, T93G
notes: Human Fab from a pIX phage library, made in E. coli; kappa light chain; also called CNTO 4093
B10: Fab323-B3 (Fab, V domains shown)
VH: EVQLLESGGGLVQPGGSLRLSCAASGFTFSSYAMSWVRQAPGKGLEWVSAIRYDGSSKYYADSVKGRFTISRDNSKNTLYLQMNSLRAEDTAVYYCAKNLKILDYWGQGTLVTVSS
VL: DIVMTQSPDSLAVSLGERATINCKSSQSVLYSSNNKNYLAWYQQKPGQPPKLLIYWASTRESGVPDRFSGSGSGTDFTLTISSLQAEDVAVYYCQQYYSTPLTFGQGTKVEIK
notes: Human Fab from a pIX phage library, made in E. coli; kappa light chain (germline B3 scaffold); also called VH323-B3/VLB3
B11: Fab323-G9 (Fab, V domains shown)
VH: EVQLLESGGGLVQPGGSLRLSCAASGFTFSSYWMHWVRQAPGKGLEWVSAISGSGGSTYYADSVKGRFTISRDNSKNTLYLQMNSLRAEDTAVYYCAKYLRWGSYGILDYWGQGTLVTVSS
VL: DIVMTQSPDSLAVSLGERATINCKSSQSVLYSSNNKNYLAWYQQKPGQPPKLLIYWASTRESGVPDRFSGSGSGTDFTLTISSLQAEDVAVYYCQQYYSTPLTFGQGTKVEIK
notes: Human Fab from a pIX phage library, made in E. coli; kappa light chain (germline B3 scaffold); also called VH323-G9/VLB3
B12: Fab323-G1 (Fab, V domains shown)
VH: EVQLLESGGGLVQPGGSLRLSCAASGFTFSDYWMSWVRQAPGKGLEWVSGIWGSGSSTYYADSVKGRFTISRDNSKNTLYLQMNSLRAEDTAVYYCAKHWGRGGDLDYWGQGTLVTVSS
VL: B1 VL with D30S, W32Y, F91R, D92S, T93N, I96L
notes: Human Fab from a pIX phage library, made in E. coli; kappa light chain (germline L6 scaffold); also called CNTO 3631

Legend:
[1] = target: T1, rat collagen I (rat, UniProt P02454 152-1207; P02466 86-1125); experiment: ELISA, plate coated with 10 µg/ml rat collagen I, anti-kappa-HRP, chemiluminescence
T1 construct: Bought collagen preparation
Procedure: (§1) Maxisorp ELISA plates (Nunc) were coated with 10 μg/ml human collagen I (Chondrex), human collagen II (Chondrex), rat collagen I (Chondrex), rat collagen II (Chondrex) or with 5 μg/ml human collagen IV (Chemicon) or human collagen V (Chemicon), or with anti-Fd (the Binding Site) at 1 μg/ml, all in PBS, according to manufacturer's instructions. The wells were washed three times in TBST and blocked for one hour with 200 μL 3% milk in TBST. 100 μL of the Fab lysate was added onto the wells of the coated ELISA plates, and incubated 1 hour at room temperature. The wells were washed three times followed by addition of 100 μL of anti-kappa-HRP (Southern Biotech) at 1:5000 in PBS. The plates were incubated at room temperature for one hour, washed three times with TBST, and developed with BM Chemiluminescence ELISA Substrate (Roche Applied Science). The clones that bound to human and rat collagen II without binding to human collagen I, IV or V, or rat collagen I were sequenced and unique clones were further characterized.

[2] = target: T2, human collagen II (human, UniProt P02458 182-1241); experiment: ELISA, purified Fab 10 ng/ml-10 ug/ml on coated collagen II
T2 construct: Purified human collagen II (Chondrex #2015), isolated from cartilage; also called huColII; human type II collagen
Procedure: as §1
EC50 values were obtained for select Fabs using ELISA assay as described above. In the assays, 100 microliters of each Fab was added in a concentration range between 10 ng/ml-10 μg/ml onto the wells.

[3] = target: T3, human collagen I (human, UniProt P02452 162-1218; P08123 80-1119); experiment: ELISA, plate coated with 10 µg/ml human collagen I, anti-kappa-HRP, chemiluminescence
T3 construct: Bought collagen preparation
Procedure: as §1

[4] = target: T4, rat collagen II (rat, UniProt P05539 114-1173); experiment: ELISA, plate coated with 10 µg/ml rat collagen II, 100 µL Fab lysate, anti-kappa-HRP, chemiluminescence
T4 construct: Bought collagen preparation
Procedure: as §1

[5] = target: T2, human collagen II; experiment: ELISA, plate coated with 10 µg/ml human collagen II, 100 µL Fab lysate, anti-kappa-HRP, chemiluminescence
Procedure: as §1

[6] = target: T4, rat collagen II; experiment: Biacore binding kinetics
[7] = target: T2, human collagen II; experiment: Biacore binding kinetics

T1 sequence (P02454 152-1207, chain 1 of 2): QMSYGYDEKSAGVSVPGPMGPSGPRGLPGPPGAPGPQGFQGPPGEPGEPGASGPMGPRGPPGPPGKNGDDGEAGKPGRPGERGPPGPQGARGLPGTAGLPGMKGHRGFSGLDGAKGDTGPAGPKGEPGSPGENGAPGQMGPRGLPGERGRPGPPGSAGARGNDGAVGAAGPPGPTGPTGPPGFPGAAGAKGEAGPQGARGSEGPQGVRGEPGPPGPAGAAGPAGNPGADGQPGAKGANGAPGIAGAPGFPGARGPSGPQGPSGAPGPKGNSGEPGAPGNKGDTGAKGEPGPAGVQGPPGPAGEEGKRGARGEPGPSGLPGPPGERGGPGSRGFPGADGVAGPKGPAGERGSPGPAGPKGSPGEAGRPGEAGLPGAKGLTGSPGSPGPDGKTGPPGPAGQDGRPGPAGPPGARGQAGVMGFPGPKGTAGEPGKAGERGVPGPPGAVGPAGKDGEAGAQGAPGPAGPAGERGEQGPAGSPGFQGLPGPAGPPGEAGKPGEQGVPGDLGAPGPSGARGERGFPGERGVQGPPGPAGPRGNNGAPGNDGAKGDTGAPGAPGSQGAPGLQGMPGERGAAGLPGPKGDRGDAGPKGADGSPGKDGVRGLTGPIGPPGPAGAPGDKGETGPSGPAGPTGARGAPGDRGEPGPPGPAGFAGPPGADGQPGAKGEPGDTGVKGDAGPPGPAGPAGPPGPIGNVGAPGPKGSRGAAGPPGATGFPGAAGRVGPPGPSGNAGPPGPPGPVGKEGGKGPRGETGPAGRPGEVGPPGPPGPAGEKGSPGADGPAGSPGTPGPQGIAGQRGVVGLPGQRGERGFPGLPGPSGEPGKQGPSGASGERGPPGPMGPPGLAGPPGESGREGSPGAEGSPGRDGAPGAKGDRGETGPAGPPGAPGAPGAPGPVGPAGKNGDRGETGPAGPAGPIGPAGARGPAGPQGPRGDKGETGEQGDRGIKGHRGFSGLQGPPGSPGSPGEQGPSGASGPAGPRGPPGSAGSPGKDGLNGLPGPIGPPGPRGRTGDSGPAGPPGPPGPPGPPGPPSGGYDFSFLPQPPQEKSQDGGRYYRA
T1 sequence (P02466 86-1125, chain 2 of 2): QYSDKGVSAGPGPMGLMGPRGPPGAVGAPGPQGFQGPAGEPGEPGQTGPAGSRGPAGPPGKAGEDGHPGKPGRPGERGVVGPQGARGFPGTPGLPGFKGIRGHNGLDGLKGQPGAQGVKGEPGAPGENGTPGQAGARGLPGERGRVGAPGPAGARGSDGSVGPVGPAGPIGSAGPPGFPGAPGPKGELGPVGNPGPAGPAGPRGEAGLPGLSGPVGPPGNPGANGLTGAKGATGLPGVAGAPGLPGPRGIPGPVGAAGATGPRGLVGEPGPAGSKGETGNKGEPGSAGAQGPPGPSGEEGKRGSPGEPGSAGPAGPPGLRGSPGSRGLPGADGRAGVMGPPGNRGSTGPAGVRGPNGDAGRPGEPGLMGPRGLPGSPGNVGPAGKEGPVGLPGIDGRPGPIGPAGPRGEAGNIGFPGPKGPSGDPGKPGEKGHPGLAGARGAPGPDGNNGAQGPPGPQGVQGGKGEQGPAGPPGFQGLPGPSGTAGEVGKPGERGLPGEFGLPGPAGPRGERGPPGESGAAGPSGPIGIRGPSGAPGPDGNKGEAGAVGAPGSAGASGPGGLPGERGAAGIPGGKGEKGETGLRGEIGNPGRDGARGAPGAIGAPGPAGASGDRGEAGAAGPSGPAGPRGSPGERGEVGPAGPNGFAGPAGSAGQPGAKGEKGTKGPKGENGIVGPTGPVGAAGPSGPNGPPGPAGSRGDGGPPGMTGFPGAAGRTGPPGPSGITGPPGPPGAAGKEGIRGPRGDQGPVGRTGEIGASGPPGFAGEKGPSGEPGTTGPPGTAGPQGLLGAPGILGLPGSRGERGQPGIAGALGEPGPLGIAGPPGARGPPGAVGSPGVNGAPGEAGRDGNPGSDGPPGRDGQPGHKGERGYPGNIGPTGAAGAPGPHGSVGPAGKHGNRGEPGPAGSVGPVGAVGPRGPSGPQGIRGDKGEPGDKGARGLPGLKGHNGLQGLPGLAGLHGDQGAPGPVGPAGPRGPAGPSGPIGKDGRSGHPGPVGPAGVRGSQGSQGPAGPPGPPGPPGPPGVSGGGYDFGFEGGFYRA
T3 sequence (P02452 162-1218, chain 1 of 2): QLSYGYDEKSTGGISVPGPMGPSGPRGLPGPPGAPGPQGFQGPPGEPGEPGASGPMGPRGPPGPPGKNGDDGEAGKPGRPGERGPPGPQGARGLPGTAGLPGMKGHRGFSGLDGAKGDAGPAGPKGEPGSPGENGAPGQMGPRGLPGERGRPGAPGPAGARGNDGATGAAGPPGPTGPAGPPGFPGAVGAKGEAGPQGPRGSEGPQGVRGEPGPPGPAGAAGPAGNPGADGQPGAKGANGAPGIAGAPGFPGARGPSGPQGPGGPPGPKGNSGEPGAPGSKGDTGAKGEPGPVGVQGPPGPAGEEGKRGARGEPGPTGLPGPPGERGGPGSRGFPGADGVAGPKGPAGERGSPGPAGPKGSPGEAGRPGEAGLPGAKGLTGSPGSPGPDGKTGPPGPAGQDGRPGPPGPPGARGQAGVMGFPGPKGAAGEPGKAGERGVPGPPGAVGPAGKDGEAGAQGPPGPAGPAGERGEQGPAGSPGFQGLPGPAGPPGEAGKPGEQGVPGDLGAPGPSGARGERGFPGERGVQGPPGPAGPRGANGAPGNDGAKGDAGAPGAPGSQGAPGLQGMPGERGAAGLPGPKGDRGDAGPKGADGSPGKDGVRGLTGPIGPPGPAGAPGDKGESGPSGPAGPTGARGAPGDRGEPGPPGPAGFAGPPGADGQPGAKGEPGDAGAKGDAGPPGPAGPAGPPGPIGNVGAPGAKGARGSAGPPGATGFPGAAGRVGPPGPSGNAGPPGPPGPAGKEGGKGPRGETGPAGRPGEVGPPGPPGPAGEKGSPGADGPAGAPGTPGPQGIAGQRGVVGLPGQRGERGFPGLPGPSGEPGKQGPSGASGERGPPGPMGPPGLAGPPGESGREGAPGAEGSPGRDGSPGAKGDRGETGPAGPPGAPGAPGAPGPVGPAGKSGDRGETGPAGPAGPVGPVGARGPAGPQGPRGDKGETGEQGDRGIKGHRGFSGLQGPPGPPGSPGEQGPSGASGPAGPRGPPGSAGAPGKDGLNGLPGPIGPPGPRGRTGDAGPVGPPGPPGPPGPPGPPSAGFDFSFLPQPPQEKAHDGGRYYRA
T3 sequence (P08123 80-1119, chain 2 of 2): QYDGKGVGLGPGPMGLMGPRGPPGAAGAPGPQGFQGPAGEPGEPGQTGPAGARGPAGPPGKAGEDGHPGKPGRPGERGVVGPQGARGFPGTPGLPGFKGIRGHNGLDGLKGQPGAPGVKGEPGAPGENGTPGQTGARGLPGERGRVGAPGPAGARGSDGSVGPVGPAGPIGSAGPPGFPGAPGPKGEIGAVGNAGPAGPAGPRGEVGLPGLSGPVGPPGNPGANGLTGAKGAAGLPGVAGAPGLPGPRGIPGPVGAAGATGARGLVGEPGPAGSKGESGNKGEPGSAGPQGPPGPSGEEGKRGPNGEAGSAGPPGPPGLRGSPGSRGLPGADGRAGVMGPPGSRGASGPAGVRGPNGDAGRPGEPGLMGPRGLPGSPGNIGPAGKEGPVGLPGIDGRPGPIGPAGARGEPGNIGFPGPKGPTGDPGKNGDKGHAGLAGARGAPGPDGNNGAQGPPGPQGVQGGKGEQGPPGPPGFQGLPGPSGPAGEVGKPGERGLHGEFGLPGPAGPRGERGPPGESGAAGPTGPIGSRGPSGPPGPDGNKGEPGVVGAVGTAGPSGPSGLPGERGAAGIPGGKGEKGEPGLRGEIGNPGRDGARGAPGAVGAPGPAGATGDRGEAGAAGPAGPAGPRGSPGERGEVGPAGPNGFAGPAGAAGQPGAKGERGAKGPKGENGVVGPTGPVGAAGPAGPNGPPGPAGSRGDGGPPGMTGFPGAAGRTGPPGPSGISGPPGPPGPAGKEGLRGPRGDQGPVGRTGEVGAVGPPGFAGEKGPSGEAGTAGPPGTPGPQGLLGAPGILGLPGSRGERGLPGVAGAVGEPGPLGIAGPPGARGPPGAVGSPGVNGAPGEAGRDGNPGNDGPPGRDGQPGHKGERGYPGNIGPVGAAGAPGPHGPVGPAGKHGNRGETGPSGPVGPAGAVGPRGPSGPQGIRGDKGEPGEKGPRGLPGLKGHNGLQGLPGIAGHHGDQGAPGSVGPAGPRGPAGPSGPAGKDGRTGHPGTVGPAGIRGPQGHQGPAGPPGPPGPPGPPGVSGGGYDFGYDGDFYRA

Binder | binding result [1] | EC50 [2] [µg/mL] | binding result [3] | binding result [4] | binding result [5] | Kd [6] [nM] | Kd [7] [nM]
B1 | no binding (tested: not given (100 µL Fab lysate)) | 0.114 | no binding (tested: not given (100 µL Fab lysate)) | binds | – | – | –
B2 | no binding (tested: not given (100 µL Fab lysate)) | – | – | binds | binds | – | –
B3 | – | – | – | binds | binds | – | –
B4 | no binding (tested: not given (100 µL Fab lysate)) | – | no binding (tested: not given (100 µL Fab lysate)) | binds | binds | – | –
B5 | – | – | – | binds | binds | – | –
B6 | no binding (tested: not given (100 µL Fab lysate)) | – | no binding (tested: not given (100 µL Fab lysate)) | binds | binds | – | –
B7 | no binding (tested: not given (100 µL Fab lysate)) | – | – | binds | binds | – | –
B8 | no binding (tested: not given (100 µL Fab lysate)) | – | no binding (tested: not given (100 µL Fab lysate)) | binds | binds | – | –
B9 | no binding (tested: not given (100 µL Fab lysate)) | 0.113 | no binding (tested: not given (100 µL Fab lysate)) | – | – | 75 | 50
B10 | no binding (tested: not given (100 µL Fab lysate)) | – | no binding (tested: not given (100 µL Fab lysate)) | – | – | – | –
B11 | no binding (tested: not given (100 µL Fab lysate)) | – | no binding (tested: not given (100 µL Fab lysate)) | – | – | – | –
B12 | – | 0.123 | – | – | – | 5 | 6

Source: US20140220634A1 (Janssen / Centocor, published 2014)
